Laboratory results from patent publication US9958461B2, “Detection of protein to protein interactions” (THE GOVERNING COUNCIL OF THE UNIVERSITY OF TORONTO, priority 2013, dated 2018).

Legend:
EGFR-Wt [1] = experiment: MaMTH EGFR-interactor screen, lentiviral preys against EGFR-wildtype bait (interaction score); format: cell-based, human; conditions: ratio of EGFR-Wt mean to EGFR-L858R mean interaction score
How it was run: (§1)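 5×GAL4UAS-luciferase HEK293T reporter cells were lentivirally infected with preys (MOI ~0.3-0.4) and puromycin-selected ≥48 h. They were then transfected in triplicate with the EGFR bait, and luciferase was read 24 h later. Score is fold-change over averaged negative-control preys; >1 denotes interaction.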

EGFR-Wt [2] = target: T1, EGFR-Wt (Homo sapiens, UniProt P00533); experiment: as above; format: cell-based; conditions: MaMTH interaction score of prey with EGFR-Wt bait, mean
T1 construct: with the advantage of testing full-length integral membrane proteins; (GGGGS)2 linker-Cub (human ubiquitin aa 35-76)-GAL4(1-147)-mNFkB(364-550) (C); expressed in transfected cells
How it was run: as §1

EGFR-L858R = target: T2, EGFR-L858R (Homo sapiens, UniProt P00533, L858R); experiment: MaMTH EGFR-interactor screen, lentiviral preys against EGFR-L858R bait (interaction score); format: cell-based; conditions: MaMTH interaction score of prey with EGFR-L858R bait
T2 construct: with the advantage of testing full-length integral membrane proteins; (GGGGS)2 linker-Cub (human ubiquitin aa 35-76)-GAL4(1-147)-mNFkB(364-550) (C); expressed in transfected cells
How it was run: as §1

Row | EGFR-Wt mean (EGFR-Wt [2]) | EGFR-L858R mean (EGFR-L858R) | Molecule | Wt/L858R (EGFR-Wt [1])
1 | 5.10 | 7.03 | TXN (protein, UniProt P10599 2-105, looked up) Thioredoxin: VKQIESKTAFQEALDAAGDKLVVVDFSATWCGPCKMIKPFFHSLSEKYSNVIFLEVDVDDCQDVASECEVKCMPTFQFFKKGQKVGEFSGANKEKLEATINELV | 0.73
2 | 4.05 | 5.59 | PTK2 (protein, UniProt Q05397 2-1052, looked up) Focal adhesion kinase 1: AAAYLDPNLNHTPNSSTKTHLGTGMERSPGAMERVLKVFHYFESNSEPTTWASIIRHGDATDVRGIIQKIVDSHKVKHVACYGFRLSHLRSEEVHWLHVDMGVSSVREKYELAHPPEEWKYELRIRYLPKGFLNQFTEDKPTLNFFYQQVKSDYMLEIADQVDQEIALKLGCLEIRRSYWEMRGNALEKKSNYEVLEKDVGLKRFFPKSLLDSVKAKTLRKLIQQTFRQFANLNREESILKFFEILSPVYRFDKECFKCALGSSWIISVELAIGPEEGISYLTDKGCNPTHLADFTQVQTIQYSNSEDKDRKGMLQLKIAGAPEPLTVTAPSLTIAENMADLIDGYCRLVNGTSQSFIIRPQKEGERALPSIPKLANSEKQGMRTHAVSVSETDDYAEIIDEEDTYTMPSTRDYEIQRERIELGRCIGEGQFGDVHQGIYMSPENPALAVAIKTCKNCTSDSVREKFLQEALTMRQFDHPHIVKLIGVITENPVWIIMELCTLGELRSFLQVRKYSLDLASLILYAYQLSTALAYLESKRFVHRDIAARNVLVSSNDCVKLGDFGLSRYMEDSTYYKASKGKLPIKWMAPESINFRRFTSASDVWMFGVCMWEILMHGVKPFQGVKNNDVIGRIENGERLPMPPNCPPTLYSLMTKCWAYDPSRRPRFTELKAQLSTILEEEKAQQEERMRMESRRQATVSWDSGGSDEAPPKPSRPGYPSPRSSEGFYPSPQHMVQTNHYQVSGYPGSHGITAMAGSIYPGQASLLDQTDSWNHRPQEIAMWQPNVEDSTVLDLRGIGQVLPTHLMEERLIRQQQEMEEDQRWLEKEERFLKPDVRLSRGSIDREDGSLQGPIGNQHIYQPVGKPDPAAPPKKPPRPGAPGHLGSLASLSSPADSYNEGVKLQPQEISPPPTANLDRSNDKVYENVTGLVKAVIEMSSKIQPAPPEEYVPMVKEVGLALRTLLATVDETIPLLPASTHREIEMAQKLLNSDLGELINKMKLAQQYVMTSLQQEYKKQMLTAAHALAVDAKNLLDVIDQARLKMLGQTRPH | 0.72
3 | 9.18 | 13.73 | Pdgfra (protein, UniProt P26618 25-1089, looked up) Platelet-derived growth …: LLLPSILPNENEKIVQLNSSFSLRCVGESEVSWQHPMSEEDDPNVEIRSEENNSGLFVTVLEVVNASAAHTGWYTCYYNHTQTDESEIEGRHIYIYVPDPDMAFVPLGMTDSLVIVEEDDSAIIPCRTTDPETQVTLHNNGRLVPASYDSRQGFNGTFSVGPYICEATVKGRTFKTSEFNVYALKATSELNLEMDARQTVYKAGETIVVTCAVFNNEVVDLQWTYPGEVRNKGITMLEEIKLPSIKLVYTLTVPKATVKDSGEYECAARQATKEVKEMKRVTISVHEKGFVEIEPTFGQLEAVNLHEVREFVVEVQAYPTPRISWLKDNLTLIENLTEITTDVQKSQETRYQSKLKLIRAKEEDSGHYTIIVQNEDDVKSYTFELSTLVPASILDLVDDHHGSGGGQTVRCTAEGTPLPEIDWMICKHIKKCNNDTSWTVLASNVSNIITELPRRGRSTVEGRVSFAKVEETIAVRCLAKNNLSVVARELKLVAPTLRSELTVAAAVLVLLVIVIVSLIVLVVIWKQKPRYEIRWRVIESISPDGHEYIYVDPMQLPYDSRWEFPRDGLVLGRILGSGAFGKVVEGTAYGLSRSQPVMKVAVKMLKPTARSSEKQALMSELKIMTHLGPHLNIVNLLGACTKSGPIYIITEYCFYGDLVNYLHKNRDSFMSQHPEKPKKDLDIFGLNPADESTRSYVILSFENNGDYMDMKQADTTQYVPMLERKEVSKYSDIQRSLYDRPASYKKKSMLDSEVKNLLSDDDSEGLTLLDLLSFTYQVARGMEFLASKNCVHRDLAARNVLLAQGKIVKICDFGLARDIMHDSNYVSKGSTFLPVKWMAPESIFDNLYTTLSDVWSYGILLWEIFSLGGTPYPGMMVDSTFYNKIKSGYRMAKPDHATSEVYEIMVQCWNSEPEKRPSFYHLSEIVENLLPGQYKKSYEKIHLDFLKSDHPAVARMRVDSDNAYIGVTYKNEEDKLKDWEGGLDEQRLSADSGYIIPLPDIDPVPEEEDLGKRNRHSSQTSEESAIETGSSSSTFIKREDETIEDIDMMDDIGIDSSDLVEDSFL | 0.67

More lines, now with the values behind:

Row | Molecule | EGFR-Wt mean (EGFR-Wt [2]) | EGFR-L858R mean (EGFR-L858R) | Wt/L858R (EGFR-Wt [1])
4 | STAT1 (protein, UniProt P42224 2-750, looked up) Signal transducer and …: SQWYELQQLDSKFLEQVHQLYDDSFPMEIRQYLAQWLEKQDWEHAANDVSFATIRFHDLLSQLDDQYSRFSLENNFLLQHNIRKSKRNLQDNFQEDPIQMSMIIYSCLKEERKILENAQRFNQAQSGNIQSTVMLDKQKELDSKVRNVKDKVMCIEHEIKSLEDLQDEYDFKCKTLQNREHETNGVAKSDQKQEQLLLKKMYLMLDNKRKEVVHKIIELLNVTELTQNALINDELVEWKRRQQSACIGGPPNACLDQLQNWFTIVAESLQQVRQQLKKLEELEQKYTYEHDPITKNKQVLWDRTFSLFQQLIQSSFVVERQPCMPTHPQRPLVLKTGVQFTVKLRLLVKLQELNYNLKVKVLFDKDVNERNTVKGFRKFNILGTHTKVMNMEESTNGSLAAEFRHLQLKEQKNAGTRTNEGPLIVTEELHSLSFETQLCQPGLVIDLETTSLPVVVISNVSQLPSGWASILWYNMLVAEPRNLSFFLTPPCARWAQLSEVLSWQFSSVTKRGLNVDQLNMLGEKLLGPNASPDGLIPWTRFCKENINDKNFPFWLWIESILELIKKHLLPLWNDGCIMGFISKERERALLKDQQPGTFLLRFSESSREGAITFTWVERSQNGGEPDFHAVEPYTKKELSAVTFPDIIRNYKVMAAENIPENPLKYLYPNIDKDHAFGKYYSRPKEAPEPMELDGPKGTGYIKTELISVSEVHPSRLQTTDNLLPMSPEEFDEVSRIVGSVEFDSMMNTV | 4.70 | 6.80 | 0.69
5 | PTPN18 (protein, UniProt Q99952 1-460, looked up) Tyrosine-protein phosphatase …: MSRSLDSARSFLERLEARGGREGAVLAGEFSDIQACSAAWKADGVCSTVAGSRPENVRKNRYKDVLPYDQTRVILSLLQEEGHSDYINGNFIRGVDGSLAYIATQGPLPHTLLDFWRLVWEFGVKVILMACREIENGRKRCERYWAQEQEPLQTGLFCITLIKEKWLNEDIMLRTLKVTFQKESRSVYQLQYMSWPDRGVPSSPDHMLAMVEEARRLQGSGPEPLCVHCSAGCGRTGVLCTVDYVRQLLLTQMIPPDFSLFDVVLKMRKQRPAAVQTEEQYRFLYHTVAQMFCSTLQNASPHYQNIKENCAPLYDDALFLRTPQALLAIPRPPGGVLRSISVPGSPGHAMADTYAVVQKRGAPAGAGSGTQTGTGTGTGARSAEEAPLYSKVTPRAQRPGAHAEDARGTLPGRVPADQSPAGSGAYEDVAGGAQTGGLGFNLRIGRPKGPRDPPAEWTRV | 1.54 | 2.18 | 0.71
6 | SLA2 (protein, UniProt Q9H6Q3 2-261, looked up) Src-like-adapter 2: GSLPSRRKSLPSPSLSSSVQGQGPVTMEAERSKATAVALGSFPAGGPAELSLRLGEPLTIVSEDGDWWTVLSEVSGREYNIPSVHVAKVSHGWLYEGLSREKAEELLLLPGNPGGAFLIRESQTRRGSYSLSVRLSRPASWDRIRHYRIHCLDNGWLYISPRLTFPSLQALVDHYSELADDICCLLKEPCVLQRAGPLPGKDIPLPVTVQRTPLNWKELDSSLLFSEAATGEESLLSEGLRESLSFYISLNDEAVSLDDA | 2.22 | 3.11 | 0.71
7 | WASL (protein, UniProt O00401 2-505, looked up) Actin nucleation-promoting …: SSVQQQPPPPRRVTNVGSLLLTPQENESLFTFLGKKCVTMSSAVVQLYAADRNCMWSKKCSGVACLVKDNPQRSYFLRIFDIKDGKLLWEQELYNNFVYNSPRGYFHTFAGDTCQVALNFANEEEAKKFRKAVTDLLGRRQRKSEKRRDPPNGPNLPMATVDIKNPEITTNRFYGPQVNNISHTKEKKKGKAKKKRLTKADIGTPSNFQHIGHVGWDPNTGFDLNNLDPELKNLFDMCGISEAQLKDRETSKVIYDFIEKTGGVEAVKNELRRQAPPPPPPSRGGPPPPPPPPHNSGPPPPPARGRGAPPPPPSRAPTAAPPPPPPSRPSVAVPPPPPNRMYPPPPPALPSSAPSGPPPPPPSVLGVGPVAPPPPPPPPPPPGPPPPPGLPSDGDHQVPTTAGNKAALLDQIREGAQLKKVEQNSRPVSCSGRDALLDQIRQGIQLKSVADGQESTPPTPAPTSGIVGALMEVMQKRSKAIHSSDEDEDEDDEEDFEDDDEWED | 1.41 | 1.93 | 0.73
8 | LYN (protein, UniProt P07948 2-512, looked up) Tyrosine-protein kinase Lyn: GCIKSKGKDSLSDDGVDLKTQPVRNTERTIYVRDPTSNKQQRPVPESQLLPGQRFQTKDPEEQGDIVVALYPYDGIHPDDLSFKKGEKMKVLEEHGEWWKAKSLLTKKEGFIPSNYVAKLNTLETEEWFFKDITRKDAERQLLAPGNSAGAFLIRESETLKGSFSLSVRDFDPVHGDVIKHYKIRSLDNGGYYISPRITFPCISDMIKHYQKQADGLCRRLEKACISPKPQKPWDKDAWEIPRESIKLVKRLGAGQFGEVWMGYYNNSTKVAVKTLKPGTMSVQAFLEEANLMKTLQHDKLVRLYAVVTREEPIYIITEYMAKGSLLDFLKSDEGGKVLLPKLIDFSAQIAEGMAYIERKNYIHRDLRAANVLVSESLMCKIADFGLARVIEDNEYTAREGAKFPIKWTAPEAINFGCFTIKSDVWSFGILLYEIVTYGKIPYPGRTNADVMTALSQGYRMPRVENCPDELYDIMKMCWKEKAEERPTFDYLQSVLDDFYTATEGQYQQQP | 6.92 | 9.74 | 0.71
